{"source": "paper PMC6167383", "about": "“Regulatory control of DNA end resection by Sae2 phosphorylation” (Nature Communications, 2018)", "key": {"[1]": {"biological_target": "T1, pSae2 λ (dephosphorylated) (Saccharomyces cerevisiae, UniProt P46946 1-345)", "T1 sequence": "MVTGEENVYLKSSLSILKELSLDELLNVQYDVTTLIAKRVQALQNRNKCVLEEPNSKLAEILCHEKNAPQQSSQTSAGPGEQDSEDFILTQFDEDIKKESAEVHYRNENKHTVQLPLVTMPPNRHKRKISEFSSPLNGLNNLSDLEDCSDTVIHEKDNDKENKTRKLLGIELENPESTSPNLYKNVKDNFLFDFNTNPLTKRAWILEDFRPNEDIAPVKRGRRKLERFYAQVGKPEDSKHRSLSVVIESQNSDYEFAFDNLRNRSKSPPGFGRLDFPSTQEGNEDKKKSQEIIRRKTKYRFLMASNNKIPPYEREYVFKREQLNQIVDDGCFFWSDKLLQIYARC", "assay": "EMSA; lambda phosphatase-treated; 2 mM Mg2+; 25 mM Tris-acetate pH 7.5, 1 mM DTT, 2 mM Mg acetate, 0.1 mg/ml BSA, 1 nM DNA, 30 C; 1 mM ATP with MRX; 30 nM streptavidin where indicated; native PAGE in TBE", "settings": "protein: recombinant; tags: C-terminal His; N-terminal MBP cleaved with PreScission; label: 3' 32P-cordycepin; blunt before 3' labeling"}, "[2]": {"biological_target": "the molecule itself", "assay": "SEC; Superose 6 10/300 GL, 50 mM Tris-HCl pH 7.5, 150 mM NaCl, 10% glycerol, 0.5 mM β-mercaptoethanol, 4 °C; ~75 μg of the Sae2 variant, mock-treated or treated with λ phosphatase for 90 min at 30 °C before loading; absorbance at 215 nm"}, "[3]": {"biological_target": "T2, S. cerevisiae Mre11-Rad50-Xrs2 complex (S. cerevisiae, UniProt P32829 1-692; P12753 1-1312; P33301 1-854)", "T2 construct": "Mre11, S. cerevisiae; Rad50, S. cerevisiae; Xrs2, S. cerevisiae; also called MRX; MRX complex; copies: + +", "assay": "pull-down; MBP-tagged Sae2 on amylose resin (mock-treated or λ phosphatase-treated on the resin), 5 μg recombinant MRX, 1 h at 4 °C; wash 50 mM Tris-HCl pH 7.5, 2 mM EDTA, 80 mM NaCl, 0.2% NP40; eluted with 20 mM maltose; silver staining", "settings": "both partners purified"}, "[4]": {"biological_target": "the molecule itself", "assay": "atomic force microscopy (particle volume analysis); 50 nM pSae2 in 40 mM Hepes pH 7, 5 mM MgCl2, 25 mM NaCl, 0.1 mM TCEP deposited on mica, imaged in air, without DNA; molecular weight from a published standard curve"}}, "data": [{"binder": "100 bp dsDNA (Bio100/Bio100c) (dsDNA, internal biotin-T in Bio100 (bold T; exact position not visible in the text)) DNA 1: GTAAGTGCCGCGGTGCGGGTGCCAGGGCGTGCCCTTGGGCTCCCCGGGCGCGTACTCCACCTCATAATCTTCTGCCATGGTCGTAGCAGCCTCCTGCATC DNA 2: GATGCAGGAGGCTGCTACGACCATGGCAGAAGATTATGAGGTGGAGTACGCGCCCGGGGAGCCCAAGGGCACGCCCTGGCACCCGCACCGCGGCACTTAC", "values": [{"measurement": "binding result", "setting": "[1]", "result": "binds"}]}, {"binder": "pSae2 S267A, expressed in the presence of phosphatase inhibitors (natural protein, S. cerevisiae, UniProt P46946 1-345, looked up, phosphorylated (prepared with phosphatase inhibitors; sites not listed), Sae2, S. cerevisiae, point mutant made in the pFB-MBP-Sae2-his plasmid; not shown: MBP, N-terminal, cleaved) MVTGEENVYLKSSLSILKELSLDELLNVQYDVTTLIAKRVQALQNRNKCVLEEPNSKLAEILCHEKNAPQQSSQTSAGPGEQDSEDFILTQFDEDIKKESAEVHYRNENKHTVQLPLVTMPPNRHKRKISEFSSPLNGLNNLSDLEDCSDTVIHEKDNDKENKTRKLLGIELENPESTSPNLYKNVKDNFLFDFNTNPLTKRAWILEDFRPNEDIAPVKRGRRKLERFYAQVGKPEDSKHRSLSVVIESQNSDYEFAFDNLRNRSKAPPGFGRLDFPSTQEGNEDKKKSQEIIRRKTKYRFLMASNNKIPPYEREYVFKREQLNQIVDDGCFFWSDKLLQIYARC", "values": [{"measurement": "binding result", "setting": "[2]", "result": "binds"}]}, {"binder": "pSae2 S267E phosphomimicking variant, expressed in the presence of phosphatase inhibitors (natural protein, S. cerevisiae, UniProt P46946 1-345, looked up, phosphorylated (prepared with phosphatase inhibitors; sites not listed), Sae2, S. cerevisiae, full-length polypeptide with S267E; not shown: MBP, N-terminal, cleaved) MVTGEENVYLKSSLSILKELSLDELLNVQYDVTTLIAKRVQALQNRNKCVLEEPNSKLAEILCHEKNAPQQSSQTSAGPGEQDSEDFILTQFDEDIKKESAEVHYRNENKHTVQLPLVTMPPNRHKRKISEFSSPLNGLNNLSDLEDCSDTVIHEKDNDKENKTRKLLGIELENPESTSPNLYKNVKDNFLFDFNTNPLTKRAWILEDFRPNEDIAPVKRGRRKLERFYAQVGKPEDSKHRSLSVVIESQNSDYEFAFDNLRNRSKEPPGFGRLDFPSTQEGNEDKKKSQEIIRRKTKYRFLMASNNKIPPYEREYVFKREQLNQIVDDGCFFWSDKLLQIYARC", "values": [{"measurement": "binding result", "setting": "[2]", "result": "binds"}]}, {"binder": "full-length recombinant MBP-tagged Sae2 dephosphorylated with λ phosphatase on amylose resin (natural protein, S. cerevisiae, UniProt P46946 1-345, looked up, dephosphorylated with λ phosphatase on the resin, Sae2, S. cerevisiae, full-length polypeptide; also called non-phosphorylated MBP-tagged Sae2; not shown: MBP, N-terminal, kept) MVTGEENVYLKSSLSILKELSLDELLNVQYDVTTLIAKRVQALQNRNKCVLEEPNSKLAEILCHEKNAPQQSSQTSAGPGEQDSEDFILTQFDEDIKKESAEVHYRNENKHTVQLPLVTMPPNRHKRKISEFSSPLNGLNNLSDLEDCSDTVIHEKDNDKENKTRKLLGIELENPESTSPNLYKNVKDNFLFDFNTNPLTKRAWILEDFRPNEDIAPVKRGRRKLERFYAQVGKPEDSKHRSLSVVIESQNSDYEFAFDNLRNRSKSPPGFGRLDFPSTQEGNEDKKKSQEIIRRKTKYRFLMASNNKIPPYEREYVFKREQLNQIVDDGCFFWSDKLLQIYARC", "values": [{"measurement": "binding result", "setting": "[3]", "result": "binds"}]}, {"binder": "full-length phosphorylated recombinant MBP-tagged pSae2 (mock-treated), on amylose resin (natural protein, S. cerevisiae, UniProt P46946 1-345, looked up, phosphorylated (phosphatase inhibitors; mock-treated); sites not listed, Sae2, S. cerevisiae, full-length polypeptide; The MBP tag was cleaved off only after elution of the complexes; also called MBP-tagged Sae2; MBP-Sae2-His; not shown: MBP, N-terminal, kept) MVTGEENVYLKSSLSILKELSLDELLNVQYDVTTLIAKRVQALQNRNKCVLEEPNSKLAEILCHEKNAPQQSSQTSAGPGEQDSEDFILTQFDEDIKKESAEVHYRNENKHTVQLPLVTMPPNRHKRKISEFSSPLNGLNNLSDLEDCSDTVIHEKDNDKENKTRKLLGIELENPESTSPNLYKNVKDNFLFDFNTNPLTKRAWILEDFRPNEDIAPVKRGRRKLERFYAQVGKPEDSKHRSLSVVIESQNSDYEFAFDNLRNRSKSPPGFGRLDFPSTQEGNEDKKKSQEIIRRKTKYRFLMASNNKIPPYEREYVFKREQLNQIVDDGCFFWSDKLLQIYARC", "values": [{"measurement": "binding result", "setting": "[3]", "result": "binds"}]}, {"binder": "pSae2 S267E dephosphorylated with λ phosphatase (natural protein, S. cerevisiae, UniProt P46946 1-345, looked up, dephosphorylated with λ phosphatase, Sae2, S. cerevisiae, full-length polypeptide with S267E; also called pSae2 S267E λ; not shown: MBP, N-terminal, cleaved) MVTGEENVYLKSSLSILKELSLDELLNVQYDVTTLIAKRVQALQNRNKCVLEEPNSKLAEILCHEKNAPQQSSQTSAGPGEQDSEDFILTQFDEDIKKESAEVHYRNENKHTVQLPLVTMPPNRHKRKISEFSSPLNGLNNLSDLEDCSDTVIHEKDNDKENKTRKLLGIELENPESTSPNLYKNVKDNFLFDFNTNPLTKRAWILEDFRPNEDIAPVKRGRRKLERFYAQVGKPEDSKHRSLSVVIESQNSDYEFAFDNLRNRSKEPPGFGRLDFPSTQEGNEDKKKSQEIIRRKTKYRFLMASNNKIPPYEREYVFKREQLNQIVDDGCFFWSDKLLQIYARC", "values": [{"measurement": "binding result", "setting": "[2]", "result": "binds"}]}, {"binder": "hyperphosphorylated recombinant Sae2 (pSae2), expressed and purified with phosphatase inhibitors (natural protein, S. cerevisiae, UniProt P46946 1-345, looked up, hyperphosphorylated (phosphatase inhibitors in culture and lysis buffer); estimate of 17 phosphorylation sites; sites not listed in the text, Sae2, S. cerevisiae, full-length polypeptide (ends at residue 345 by the legend's 170-345); Tetramer by AFM volume analysis; also called phosphorylated Sae2; wt pSae2; not shown: MBP, N-terminal, cleaved) MVTGEENVYLKSSLSILKELSLDELLNVQYDVTTLIAKRVQALQNRNKCVLEEPNSKLAEILCHEKNAPQQSSQTSAGPGEQDSEDFILTQFDEDIKKESAEVHYRNENKHTVQLPLVTMPPNRHKRKISEFSSPLNGLNNLSDLEDCSDTVIHEKDNDKENKTRKLLGIELENPESTSPNLYKNVKDNFLFDFNTNPLTKRAWILEDFRPNEDIAPVKRGRRKLERFYAQVGKPEDSKHRSLSVVIESQNSDYEFAFDNLRNRSKSPPGFGRLDFPSTQEGNEDKKKSQEIIRRKTKYRFLMASNNKIPPYEREYVFKREQLNQIVDDGCFFWSDKLLQIYARC", "values": [{"measurement": "stoichiometry N", "setting": "[4]", "result": 4}]}, {"binder": "pSae2 ΔC95, lacking 95 C-terminal residues (domain or fragment, S. cerevisiae, UniProt P46946 1-250, looked up, phosphorylated (named pSae2; sites not listed), Sae2, S. cerevisiae, lacking the 95 C-terminal residues; source: Sf9, purified as pSae2; not shown: MBP, N-terminal, cleaved) MVTGEENVYLKSSLSILKELSLDELLNVQYDVTTLIAKRVQALQNRNKCVLEEPNSKLAEILCHEKNAPQQSSQTSAGPGEQDSEDFILTQFDEDIKKESAEVHYRNENKHTVQLPLVTMPPNRHKRKISEFSSPLNGLNNLSDLEDCSDTVIHEKDNDKENKTRKLLGIELENPESTSPNLYKNVKDNFLFDFNTNPLTKRAWILEDFRPNEDIAPVKRGRRKLERFYAQVGKPEDSKHRSLSVVIESQ", "values": [{"measurement": "binding result", "setting": "[2]", "result": "binds"}]}]}
